As usually defined, the Kd is the free concentration of one partner at which half of the binding sites on the other are occupied at equilibrium, for simple one-to-one binding.

The target in test [1] is T1, ACVR1 (as used for surface plasmon resonance) (Homo sapiens (assumed), UniProt Q04771).
T1 construct: ACVR1 (ALK2), BMP type I receptor; For other steps (serum ELISA, panning, BLI) the methods name recombinant human ACVR1 extracellular domain proteins (Creative Biomart ACVR1-01H; Sino Biologicals 10227-H03B; R&D Systems 637-AR), but none is named for the BIAcore measurement; It was probably an extracellular domain construct; also called ALK2; BMP type I receptor ACVR1
T1 sequence (Q04771 21-509): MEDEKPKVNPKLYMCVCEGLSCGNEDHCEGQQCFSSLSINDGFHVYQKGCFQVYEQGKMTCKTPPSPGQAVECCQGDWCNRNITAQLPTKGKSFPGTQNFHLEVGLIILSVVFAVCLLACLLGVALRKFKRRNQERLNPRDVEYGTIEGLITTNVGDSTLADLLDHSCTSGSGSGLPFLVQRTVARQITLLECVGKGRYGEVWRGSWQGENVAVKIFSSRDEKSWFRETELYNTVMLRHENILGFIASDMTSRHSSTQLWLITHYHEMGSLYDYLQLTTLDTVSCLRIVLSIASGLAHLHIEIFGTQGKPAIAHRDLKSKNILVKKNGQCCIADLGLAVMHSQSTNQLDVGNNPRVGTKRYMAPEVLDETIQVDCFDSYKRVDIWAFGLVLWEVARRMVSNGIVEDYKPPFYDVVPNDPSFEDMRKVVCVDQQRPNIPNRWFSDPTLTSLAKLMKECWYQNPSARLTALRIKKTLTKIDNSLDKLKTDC
The test is described as follows: SPR; BIAcore; which partner was immobilised, and the conditions, are not told in the text shown. To be noted: both partners purified. (SPR reads the build-up and loss of mass on a sensor chip optically.)

The target in test [2] is T2, ACVR1 on parental C2C12 cells (Mus musculus (C2C12, endogenous), UniProt P37172).
T2 construct: ACVR1 (ALK2), mouse, endogenous on the surface of C2C12 cells; also called ALK2; wild-type ACVR1; source: endogenous, on mouse C2C12 myoblast cells
T2 sequence (P37172 21-509): as the sequence (Q04771 21-509) above, with M1V, P10Q, L121I, D162E, P310S counted along it
Kind of test: flow cytometry on cells; JAB0505 on parental (wild-type ACVR1-expressing) and ACVR1-KO C2C12 cells. To be noted: one partner purified. Background: In flow cytometry, cells or beads pass a laser one at a time.

A further test concerns the target T3, ALK3 on C2C12 cells (Mus musculus (C2C12, endogenous), UniProt P36895).
T3 construct: ALK3 (BMPR1A), mouse, endogenous on the surface of C2C12 cells; also called Bmpr1a; source: endogenous, on mouse C2C12 myoblast cells (ACVR1-KO clone)
The description is as above. To be noted: one partner purified.

T3 sequence (P36895 24-532): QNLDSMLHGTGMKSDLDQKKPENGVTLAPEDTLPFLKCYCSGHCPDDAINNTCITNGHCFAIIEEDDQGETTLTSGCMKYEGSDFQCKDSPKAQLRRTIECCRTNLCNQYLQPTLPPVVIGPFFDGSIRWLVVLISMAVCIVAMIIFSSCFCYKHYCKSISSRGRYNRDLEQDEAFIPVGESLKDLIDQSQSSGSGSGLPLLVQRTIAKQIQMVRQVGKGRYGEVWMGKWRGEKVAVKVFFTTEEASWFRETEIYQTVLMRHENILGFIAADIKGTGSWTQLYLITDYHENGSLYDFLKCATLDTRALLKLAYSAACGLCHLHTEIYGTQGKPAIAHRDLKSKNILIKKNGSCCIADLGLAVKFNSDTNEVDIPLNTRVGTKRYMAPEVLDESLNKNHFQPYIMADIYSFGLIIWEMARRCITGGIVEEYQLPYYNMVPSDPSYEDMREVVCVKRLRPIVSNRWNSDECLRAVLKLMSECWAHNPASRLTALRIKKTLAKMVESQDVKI

B1: anti-ACVR1 monoclonal antibody JAB0505 (antibody, V domains shown)
VH: EVQLQQSGAELVRPGASVRLSCTASGFNIKDSLMHWVKQRPEQGLEWIGWIDPEDGETRYAPNFQDKATITAVTSSNTAYLQLSSLTSEDSAIYYCARYTSRYYTMDYWGQGTSVTVSS
VL: DIQMTQSPASQSASLGESVTFTCLASQTIGTWLAWYQQKPGKSPQLLIYAATSLADGVPSRFSGSGSGTKFSFKISSLQAEDFASYYCQQLYWTPWTFGGGTKLEIK
notes: also called anti-ACVR1 mAb; mAb JAB0505; source: HEK293 cells, purified by protein A chromatography; copies: 2 + 2
In the case of B1, the Kd in test [1] is around 0.025 µM. For the same molecule, the binding result is given as “binds” in test [2] and “no binding” with ALK3 on C2C12 cells.

(Values after PMC9197527, “An anti-ACVR1 antibody exacerbates heterotopic ossification by fibro-adipogenic progenitors in fibrodysplasia ossificans progressiva mice” (The Journal of Clinical Investigation, 2022).)
